Patent EP4361176A1

Columns and labels:
[1] = target: human FcγRIIIa V extracellular domain (human) (UniProt P08637); experiment: SPR; KD of G1d divided by KD of this antibody
[2] = target: human FcγRIIa R extracellular domain (human) (UniProt P12318); experiment: SPR; KD of G1d divided by KD of this antibody
[3] = target: human FcγRIIIa V extracellular domain (human) (UniProt P08637); experiment: SPR; KD for FcγRIIb divided by KD for this FcγR
[4] = target: human FcγRIIa R extracellular domain (human) (UniProt P12318); experiment: SPR; KD for FcγRIIb divided by KD for this FcγR
[5] = target: human FcγRIIIa V extracellular domain (human) (UniProt P08637); experiment: SPR (Biacore 8K+), captured antibody, 1:1 Langmuir model
[6] = target: human FcγRIIa R extracellular domain (human) (UniProt P12318); experiment: as above
[7] = target: human FcγRIIb extracellular domain with C-terminal His-tag (human) (UniProt P31994); experiment: SPR (Biacore T200), FcγRIIb 1000 nM, amount bound per unit captured antibody
[8] = target: human FcγRIIb extracellular domain with C-terminal His-tag (human) (UniProt P31994); experiment: SPR; binding amount / that of MDX10D1H-G1m/MDX10D1L-k0MT

human FcγRIIb extracellular domain with C-terminal His-tag (human), sequence (P31994 43-217): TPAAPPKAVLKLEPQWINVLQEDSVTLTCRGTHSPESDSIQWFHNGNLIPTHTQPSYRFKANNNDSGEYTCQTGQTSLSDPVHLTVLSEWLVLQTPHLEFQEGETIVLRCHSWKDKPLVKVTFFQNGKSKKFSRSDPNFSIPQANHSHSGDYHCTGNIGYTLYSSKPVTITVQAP
H240-GASDALIE/L73-k0 (antibody), sequence (heavy): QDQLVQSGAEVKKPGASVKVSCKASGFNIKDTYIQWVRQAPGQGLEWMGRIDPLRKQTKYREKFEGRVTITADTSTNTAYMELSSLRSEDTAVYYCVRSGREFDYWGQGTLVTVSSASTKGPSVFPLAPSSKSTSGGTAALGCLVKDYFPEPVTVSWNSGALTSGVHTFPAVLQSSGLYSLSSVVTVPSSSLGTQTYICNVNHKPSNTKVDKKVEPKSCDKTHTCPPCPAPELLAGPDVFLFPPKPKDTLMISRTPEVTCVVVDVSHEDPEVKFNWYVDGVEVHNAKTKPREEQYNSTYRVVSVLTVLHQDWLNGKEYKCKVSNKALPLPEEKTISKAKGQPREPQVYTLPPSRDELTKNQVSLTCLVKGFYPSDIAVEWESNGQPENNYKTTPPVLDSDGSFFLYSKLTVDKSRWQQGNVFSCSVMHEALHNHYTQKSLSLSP
H240-GASDALIE/L73-k0 (antibody), sequence (light): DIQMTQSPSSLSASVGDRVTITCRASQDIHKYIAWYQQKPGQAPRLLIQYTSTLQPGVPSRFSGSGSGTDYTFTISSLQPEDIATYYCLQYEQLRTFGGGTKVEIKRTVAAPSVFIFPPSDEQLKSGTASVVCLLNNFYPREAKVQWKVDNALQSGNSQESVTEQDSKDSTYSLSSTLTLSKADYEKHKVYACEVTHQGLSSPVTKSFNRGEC

Substance	Relative value to KD between G1d and hFcgRs [1]	Relative value to KD between G1d and hFcgRs [2]	A/I ratio (KD for FcγRIIb divided by KD for each FcyR) [3]	A/I ratio (KD for FcγRIIb divided by KD for each FcyR) [4]	Kd [5]	Kd [6]	Binding amount [7]	Relative binding amount [8]
H240-GASDALIE/L73-k0 (antibody)	23.6	10.3	176	16.5	15.2 nM	161 nM		
MDX10D1H-G1m/MDX10D1L-k0MT (antibody)							0.012	
MDX10D1H-GASDIE/MDX10D1L-k0MT (antibody)							0.072	5.8
